Legend:
alpha subunit (GPIIb) = target: T1, alpha subunit (GPIIb) (Homo sapiens, UniProt P05106+P08514); assay: Chemical crosslinking of 125I-labeled RGD peptide to platelets (BS3), SDS-PAGE and autoradiography; assay type: binding; conditions: 125I-Fn-7 20 μM, thrombin-stimulated platelets, 45 min at 22° C., BS3 0.2 mM
T1 construct: Platelets were isolated from fresh human blood collected into acid/citrate/dextrose; endogenous in cells; host or cells: washed human platelets, thrombin-stimulated

beta subunit (GPIIIa) = target: T2, beta subunit (GPIIIa) (Homo sapiens, UniProt P05106+P08514); assay: as above; assay type: binding; conditions: 125I-Fn-7 20 μM, thrombin-stimulated platelets, 45 min at 22° C., BS3 0.2 mM
T2 construct: Platelets were isolated from fresh human blood collected into acid/citrate/dextrose; endogenous in cells; host or cells: washed human platelets, thrombin-stimulated or nonstimulated
Experimental: FIG. 2 illustrates the results of the crosslinking of an RGD peptide to discrete sites in the beta subunit (GPIIIa) of an Integrin adhesion receptor. The ^125 I-labeled RGD peptide, Fn-7 (20 μM), was bound to platelet (6×10^8 /ml) for 45 min at 22° C., and crosslinked with BS^3 (0.2 mM). The fragmentation patterns after proteolysis were analyzed by SDS-PAGE [Laemmli, Nature. 227:680 (1970)] and autoradiography. […] Lanes 2-7, GPIIIa:Fn-7 bands were excised from gels, subjected to proteolysis and then analyzed by SDS-PAGE (15% gels, reducing conditions). For lanes 2-5, GPIIIA:Fn-7 bands were excised and digestions with V-8 protease were performed within the gel slices as described in Cleveland et al., J. Biol. Chem., 252:1102 (1977).
Platelet binding of Fn-7 followed the protocols previously described for measuring platelet interactions with adhesive proteins and with this and other peptides. See, Ginsberg et al., J. Biol. Chem., 260:3931-3936 (1985); Lam et al , Fed. Proc. Fed. Am. Soc. Exp. Biol., 44:1126 (1985); and Marguerie et al., supra. […]
The cell-bound ligand was recovered by centrifugation through 20% sucrose, and the cells were extracted in PBS containing 1% Nonidet P40 and […] N-ethylmaleimide (Sigma). […] The cross-linked samples were analyzed by electrophoresis (SDS-PAGE) on polyacrylamide vertical slab gels in the buffer system of Laemmli, Nature, […] (1970). […]

crosslinking to the alpha subunit (GPIIb) (alpha subunit (GPIIb)): more minor crosslinking
crosslinking to the beta subunit (GPIIIa) (beta subunit (GPIIIa)): predominance
Sequence: KYGRRGDS [Fn-7, RGD-peptide with lysine for crosslinking and tyrosine for radioiodination]
